Here are results for 15 molecules from patent publication US20130131322A1 (MEDICAL AND BIOLOGICAL LABORATORIES, published 2013).

In experiment [1] the target is commercially-available secreted TGF-α biosynthesized by Escherichia coli (R&D systems Inc.) (human, UniProt P01135 40-89). The experiment can be described thus: cell-based or functional assay.
In experiment [2] the target is T1, G79A-substituted human TGF-α expressed on 293T cells (human, UniProt P01135 24-160).
T1 construct: Made from pDIG-TGF-α (positions 1 to 160); also called G79A substitution analog; G79A-substituted TGF-α
The experiment can be described thus: flow cytometry on 293T cells. As for the experimental part: (§1) After washed with a wash buffer twice, the cells were allowed to react with a 200-fold diluted PE-labeled anti-mouse IgG antibody (MBL CO., LTD.) at 4° C. for 60 minutes.
Background: In flow cytometry, cells or beads pass a laser one at a time.

The target in experiment [3] is T2, H74A-substituted human TGF-α expressed on 293T cells (human, UniProt P01135 24-160).
T2 construct: Made from pDIG-TGF-α (positions 1 to 160); also called H74A substitution analog
The experiment can be described thus: flow cytometry on 293T cells. The protocol:
as §1

Experiment [4] deals with T3, TGF-α-hFc (human, UniProt P01135 40-89).
T3 construct: not shown: Fc portion of human immunoglobulin G1, fused on the C-terminal side
The experiment in a line: solid phase ELISA, TGFα-hFc on plate.

In experiment [5] the target is T4, proTGF-α-hFc (human, UniProt P01135 24-89).
T4 construct: not shown: Fc portion of human immunoglobulin G1, fused on the C-terminal side
The experiment in a line: solid phase ELISA, proTGFα-hFc on plate. A general note: ELISA stands for enzyme-linked immunosorbent assay.

In experiment [6] the target is T5, transmembrane TGF-α (human TGF-α positions 1 to 160) expressed on 293T cells (human, UniProt P01135 24-160).
T5 construct: also called TGF-α/293T; TGFα/293T
T5 sequence: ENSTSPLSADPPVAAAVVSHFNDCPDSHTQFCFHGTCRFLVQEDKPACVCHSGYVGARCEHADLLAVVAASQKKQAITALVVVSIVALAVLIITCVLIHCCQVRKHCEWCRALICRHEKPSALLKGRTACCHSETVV
The experiment in a line: flow cytometry, culture supernatant on transmembrane TGF-α/293T.

B1: MBL144-1 (antibody, mouse IgG1, V domains shown)
VH: VQLQESGPGLAKPSQTLSLTCSVTGYSITSDYWNWIRKFPGNKLEYMGYISYSGSTYYNPSLKSRISITRDTSKNQYYLQLNSVTTEDTATYYCARSYDGICFDNWGQGTTLTVSS
VL: DILMTQSPATLSVTPGETVSLSCRASQNTYKNLHWYQQKSHGTPKLLIKYASAPISGIPSRFTGSGSGTDYTLSINSVKPEDEGIYYCLQGYSMPWTFGGGTKLEIK
Consider B1, for which, in experiment [1], the “inhibition of EGFR tyrosine phosphorylation (P-Tyr1173) in A431 cells, antibody at 10 µg/mL” value is ≥ 70%. In addition, the binding result is “no binding (tested: 5 µg/mL)” in experiment [2] and “binds” in experiment [3]. Also, the “OD (solid phase ELISA)” value came to 0.65 OD in experiment [4] and 1.42 OD in experiment [5].

B2: humanized chimeric anti-TGF-α antibody of MBL144-1 (antibody, human IgG1, V domains shown)
VH: VQLQESGPGLAKPSQTLSLTCSVTGYSITSDYWNWIRKFPGNKLEYMGYISYSGSTYYNPSLKSRISITRDTSKNQYYLQLNSVTTEDTATYYCARSYDGICFDNWGQGTTLTVSS
VL: DILMTQSPATLSVTPGETVSLSCRASQNTYKNLHWYQQKSHGTPKLLIKYASAPISGIPSRFTGSGSGTDYTLSINSVKPEDEGIYYCLQGYSMPWTFGGGTKLEIK
notes: tested as 293T culture supernatant; also called recombinant antibody MBL144-1
With B2, the binding result in experiment [6] is listed as “binds”.

B3: MBL009-15 (antibody, mouse IgG1, V domains shown)
VH: VQLQESGPGLVKPSQSLSLTCTVTGYSITSDYAWNWIRQFPGNKLEWMGYISYSGSTSYNPSLKSRISITRDTSKNQFFLQLNSVTTEDTATYYCARGGITRFAYWGQGTLVTVSA
VL: DIQMTQTTSSLSASLGDRLTISCRASQDIRNYLNWYQQKPDGTVKLLIYYTSRLHSGVPSRFSGSGSGTDYSLTISNLEQEDIATYFCQQGNTLPWTFGGGTKLEIK
As for B3, the binding result in experiment [2] is “no binding (tested: 5 µg/mL)”; in experiment [3], “binds”. Also, the “OD (solid phase ELISA)” value was 0.879 OD in experiment [4] and 1.51 OD in experiment [5].

B4: humanized chimeric anti-TGF-α antibody of MBL009-15 (antibody, human IgG1, V domains shown)
VH: VQLQESGPGLVKPSQSLSLTCTVTGYSITSDYAWNWIRQFPGNKLEWMGYISYSGSTSYNPSLKSRISITRDTSKNQFFLQLNSVTTEDTATYYCARGGITRFAYWGQGTLVTVSA
VL: DIQMTQTTSSLSASLGDRLTISCRASQDIRNYLNWYQQKPDGTVKLLIYYTSRLHSGVPSRFSGSGSGTDYSLTISNLEQEDIATYFCQQGNTLPWTFGGGTKLEIK
notes: tested as 293T culture supernatant; also called recombinant antibody MBL009-15
Take B4: the binding result in experiment [6] is “binds”.

B5: MBL292-1 (antibody, mouse IgG1, V domains shown)
VH: VQLQQSGAELVRPGASVKLSCTASGFNIKDDYMHWMKQRPEQGLEWIGRIDPANGNTKYAPKFQDKATITADTSSNTAYLQLSSLTSEDTAVYYCSRMGLLRGYWGQGTTLTVSS
VL: IQMTQSSSSLSVSLGDRVTITCKASVHINSWLAWYQQKPGNAPRLLISGATNLKTGVPSRFSGSASGKDYTLSITSLQTEDVATYYCQQYWDTPWTFGGGTKLEIK
Take B5: the “inhibition of EGFR tyrosine phosphorylation (P-Tyr1173) in A431 cells, antibody at 10 µg/mL” value in experiment [1] is ≥ 70%. In addition, the values for the binding result in experiment [2] and in experiment [3] were “no binding (tested: 5 µg/mL)” and “binds”, respectively. The “OD (solid phase ELISA)” value in experiment [4] is 1.04 OD; in experiment [5] it was 1.45 OD.

B6: humanized chimeric anti-TGF-α antibody of MBL184-6 (antibody, human IgG1, V domains shown)
VH: EVQLQQSGAELVRPGASVKLSCTVSGFNIKDDYMHWVKQRPEQGLEWIGRIDPANGHTKYAPKFQDKATITADTSSNTAYLQFSSLTSEDTAVYYCTRMGLRRGYWGQGTTLTVSS
VL: IQMTQSSSSLSVSLGDRVTITCKASEHINSWLAWYQQKPGNAPRLLISGATNLKTGVPSRFSGSASGKDYTLNITSLQTEDVATYYCQQYWGTPWTFGGGTKLEIK
notes: tested as 293T culture supernatant; also called recombinant antibody MBL184-6
Consider B6, for which the binding result in experiment [6] was “binds”.

B7: humanized chimeric anti-TGF-α antibody of MBL292-1 (antibody, human IgG1, V domains shown)
VH: VQLQQSGAELVRPGASVKLSCTASGFNIKDDYMHWMKQRPEQGLEWIGRIDPANGNTKYAPKFQDKATITADTSSNTAYLQLSSLTSEDTAVYYCSRMGLLRGYWGQGTTLTVSS
VL: IQMTQSSSSLSVSLGDRVTITCKASVHINSWLAWYQQKPGNAPRLLISGATNLKTGVPSRFSGSASGKDYTLSITSLQTEDVATYYCQQYWDTPWTFGGGTKLEIK
notes: tested as 293T culture supernatant; also called recombinant antibody MBL292-1
Take B7: the binding result in experiment [6] is on record as “binds”.

B8: MBL184-6 (antibody, mouse IgG1, V domains shown)
VH: EVQLQQSGAELVRPGASVKLSCTVSGFNIKDDYMHWVKQRPEQGLEWIGRIDPANGHTKYAPKFQDKATITADTSSNTAYLQFSSLTSEDTAVYYCTRMGLRRGYWGQGTTLTVSS
VL: IQMTQSSSSLSVSLGDRVTITCKASEHINSWLAWYQQKPGNAPRLLISGATNLKTGVPSRFSGSASGKDYTLNITSLQTEDVATYYCQQYWGTPWTFGGGTKLEIK
For B8, the “inhibition of EGFR tyrosine phosphorylation (P-Tyr1173) in A431 cells, antibody at 10 µg/mL” value in experiment [1] is ≥ 70%. For the same molecule, the binding result is “no binding (tested: 5 µg/mL)” in experiment [2] and “binds” in experiment [3]. Besides, the “OD (solid phase ELISA)” value came out at 0.745 OD in experiment [4] and 1.4 OD in experiment [5].

B9: MBL352-34 (antibody, mouse IgG1, V domains shown)
VH: VQLQQSGAELVRPGASVKLSCTASGFNIKDDYMHWVKQRPEQGLEWIGRIDPANGHTKYAPKFQDKATITADTSSNTAYLQFSSLTSEDTAVYYCTRMGLRRGYWGQGTTLTVSS
VL: IQMTQSSSSLSVSLGDRVTITCKASEHINSWLAWYQQKPGNAPRLLISGATNLKTGVPSRFSGSASGKDYTLSITSLQTEDVATYYCQQYWGTPWTFGGGTKLEIK
For B9, the “inhibition of EGFR tyrosine phosphorylation (P-Tyr1173) in A431 cells, antibody at 10 µg/mL” value in experiment [1] is ≥ 70%. For the same molecule, the binding result in experiment [2] is on record as “no binding (tested: 5 µg/mL)”; in experiment [3], “binds”. Moreover, the “OD (solid phase ELISA)” value was 0.704 OD in experiment [4] and 1.35 OD in experiment [5].

B10: humanized chimeric anti-TGF-α antibody of MBL352-34 (antibody, human IgG1, V domains shown)
VH: VQLQQSGAELVRPGASVKLSCTASGFNIKDDYMHWVKQRPEQGLEWIGRIDPANGHTKYAPKFQDKATITADTSSNTAYLQFSSLTSEDTAVYYCTRMGLRRGYWGQGTTLTVSS
VL: IQMTQSSSSLSVSLGDRVTITCKASEHINSWLAWYQQKPGNAPRLLISGATNLKTGVPSRFSGSASGKDYTLSITSLQTEDVATYYCQQYWGTPWTFGGGTKLEIK
notes: tested as 293T culture supernatant; also called recombinant antibody MBL352-34
Take B10: the binding result in experiment [6] is reported as “binds”.

B11: humanized chimeric anti-TGF-α antibody of MBL018-1 (antibody, human IgG1, V domains shown)
VH: EVQLQQSGTVLTRPGASVKMSCKASGYTFTNFWIHWVKQRPGQGLDWIGAIYPGNTNTDYNQKFQGKAKLTAVSSASTAYMELSSLTNEDSAVYYCTRGGAMDYWGQGTSVTVSS
VL: IVMTQTPKLLPVSAGDRVTMTCKASQSVDNSVAWYQQKPGQSPKLLIFYASNHYTGVPDRFTASGSGTDFTFTISSVQVEDLAVYFCQQHFSSPRTFGGGTKLEIR
notes: tested as 293T culture supernatant; also called recombinant antibody MBL018-1
For the molecule B11, the binding result in experiment [6] is “binds”.

B12: MBL259-3 (antibody, mouse IgG2a, V domains shown)
VH: VQLQQSGAELVRPGASVKLSCTASDFNIKDDYMHWMKQRPEQGLEWIGRIDPANGNTKYAPKFQDKATMTADTSSNTAYLQFSSLTSEDTAVYYCATSWGFPYWGQGTLVTVSA
VL: DIVMTQAAPSVPVTPGESVSISCRSSKSLLHRNGNTYLYWFLQRPGQSPQLLIYRMSNLASGVPDRFSGSGSGTAFTLRISRVEAEDVGVYYCLQHLEYPYTFGSGTKLEIK
As to B12, the binding result in experiment [2] was “no binding (tested: 5 µg/mL)”; in experiment [3], “binds”. Moreover, the “OD (solid phase ELISA)” value turned out to be 1.11 OD in experiment [4] and 1.59 OD in experiment [5].

B13: humanized chimeric anti-TGF-α antibody of MBL259-3 (antibody, human IgG1, V domains shown)
VH: VQLQQSGAELVRPGASVKLSCTASDFNIKDDYMHWMKQRPEQGLEWIGRIDPANGNTKYAPKFQDKATMTADTSSNTAYLQFSSLTSEDTAVYYCATSWGFPYWGQGTLVTVSA
VL: DIVMTQAAPSVPVTPGESVSISCRSSKSLLHRNGNTYLYWFLQRPGQSPQLLIYRMSNLASGVPDRFSGSGSGTAFTLRISRVEAEDVGVYYCLQHLEYPYTFGSGTKLEIK
notes: tested as 293T culture supernatant; also called recombinant antibody MBL259-3
B13: in experiment [6], the binding result was “binds”.

B14: MBL016-8 (antibody, mouse IgG2a, V domains shown)
VH: VQLQQSGAELVRPGASVKLSCTASGFNIKDDYMYWVKQRPEQGLEWIGRIDPANGNTKYAPKFQDKATITADTSSNTAYLHLSSLTSEDTAVFYCAYRRAYWGQGTLVTVSA
VL: DIQMTQSPSSLSASLGGKVTITCKASQDINKYIAWYQHKPGKGPRLFIHYTSKLQPGIPSRFSGSGSGRDYSFSISNLEPEDIATYYCLQYDNLLYTFGGGTKLEIK
B14: the “inhibition of EGFR tyrosine phosphorylation (P-Tyr1173) in A431 cells, antibody at 10 µg/mL” value in experiment [1] is ≥ 70%. Moreover, the binding result in experiment [2] is “no binding (tested: 5 µg/mL)”; in experiment [3] it was “binds”. Besides, the “OD (solid phase ELISA)” value in experiment [4] was determined as 0.869 OD; in experiment [5] it was 1.37 OD.

B15: humanized chimeric anti-TGF-α antibody of MBL016-8 (antibody, human IgG1, V domains shown)
VH: VQLQQSGAELVRPGASVKLSCTASGFNIKDDYMYWVKQRPEQGLEWIGRIDPANGNTKYAPKFQDKATITADTSSNTAYLHLSSLTSEDTAVFYCAYRRAYWGQGTLVTVSA
VL: DIQMTQSPSSLSASLGGKVTITCKASQDINKYIAWYQHKPGKGPRLFIHYTSKLQPGIPSRFSGSGSGRDYSFSISNLEPEDIATYYCLQYDNLLYTFGGGTKLEIK
notes: tested as 293T culture supernatant; also called recombinant antibody MBL016-8
B15: the binding result in experiment [6] is reported as “binds”.
